Laboratory results as given in US20240076402A1, “HUMANIZED ANTI-LIV1 ANTIBODIES FOR THE TREATMENT OF BREAST CANCER” (Seagen Inc., priority 2017, published 2024).

Columns and labels:
Assay type in all cases: in vivo, human
[1] = system: women with LIV-1-positive, unresectable, locally advanced or metastatic breast cancer (LA/MBC); assay: Phase 1 study of SGN-LIV1A: safety and tolerability
Experimental: (§1) This ongoing, phase 1 study evaluated safety, tolerability, pharmacokinetics, and anti-tumor activity of SGN-LIV1A (q3wks IV) in women with LIV-1-positive, unresectable, locally advanced or metastatic breast cancer (LA/MBC) (NCT01969643). Patients with measurable disease and >2 prior cytotoxic regimens for LA/MBC were eligible. Patients with ≥Grade 2 neuropathy were excluded. Response was assessed per RECIST v1.1; pts with stable disease (SD) or better could continue treatment until disease progression or intolerable toxicity. At completion of dose escalation in hormone receptor-positive/HER2-negative (HR+/HER2−) and triple-negative (TN) patients, expansion cohorts were opened to further evaluate safety and antitumor activity of monotherapy in TN patients. Tumor biopsies were evaluated for LIV1 expression.
At the completion of dose escalation, multiple expansion cohorts for SGN-LIV1A monotherapy (Part A) treatment were opened to enroll up to 15 patients each with specific breast cancer subtypes at a recommended dose level to further define the safety and antitumor activity. Following an analysis of safety and activity in the 2.0 mg/kg versus 2.5 mg/kg dose cohorts, the recommended phase 2 dose was determined to be 2.5 mg/kg (maximum dose of 200 mg per cycle)

[2] = system: hormone receptor-positive/HER2-negative (HR+/HER2-) LIV-1-positive LA/MBC; assay: Phase 1 study of SGN-LIV1A: anti-tumor activity per RECIST v1.1, HR+/HER2- patients; conditions: 17 efficacy evaluable HR+/HER2- patients, dose escalation
Experimental: as §1

[3] = system: triple-negative (TN) LIV-1-positive LA/MBC; assay: Phase 1 study of SGN-LIV1A: anti-tumor activity per RECIST v1.1, triple-negative patients
Experimental: as §1

[4] = system: patients with LIV-1-positive LA/MBC, weight greater than or equal to 80 kg; assay: Phase 1 dose expansion continuation: safety of a total maximum dose of 250 mg per cycle, with or without GCSF; conditions: 2.5 mg/kg, >=200 mg up to 250 mg per cycle
Experimental: This study is a continuation of the dose expansion cohort study for SGN-LIV1A monotherapy (Part A) of the phase 1 study described in Example 1, which includes data from 22 additional administrations of SGN-LIV1A (q3wks IV). Patients were as described in Example 1. These additional administrations were conducted to assess the safety of a total maximum dose of 250 mg per cycle. Patients were dosed at 2.5 mg/kg and each of these 22 additional administrations were greater than or equal to 200 mg per cycle due to the patients having a weight greater than or equal to 80 kg.

[5] = % of 69 patients, 0.5 to 2.8 mg/kg q3wks IV

Substance: SGN-LIV1A: anti-LIV-1 humanized antibody (hLIV22) conjugated to monomethyl auristatin E (MMAE) via a protease-cleavable valine-citrulline linker
- febrile neutropenic events or neutropenia-associated SAEs ([1]; 2.0 mg/kg (N=26)): no febrile neutropenic events or neutropenia-associated SAEs
- incidence of Grade 3 or higher neutropenia AEs ([1]; 2.5 mg/kg dose level of Part A (monotherapy)): 57%
- febrile neutropenic events or neutropenia-associated SAEs ([1]; 2.5 mg/kg, doses <=200 mg (N=18)): no febrile neutropenic events or neutropenia-associated SAEs
- patients experiencing SAEs associated with neutropenia ([1]; 2.5 mg/kg, doses >200 mg (N=11)): 5 of 11
- febrile neutropenia ([1]; 2.5 mg/kg, doses >200 mg (N=11), includes the one treatment related death due to sepsis): 2 of 11
- dose-limiting toxicities (DLTs) ([1]; 19 DLT-evaluable patients, doses of 0.5 to 2.8 mg/kg q3wks IV): No dose-limiting toxicities (DLTs) occurred
- treatment-related deaths ([1]; 69 patients, total dose exceeded 200 mg per cycle, no other treatment-related deaths on-study): one treatment-related death due to sepsis
- AEs >=Grade 3: anemia [1, 5]: 15%
- AEs >=Grade 3: neutropenia [1, 5]: 25%
- treatment-emergent AE: abdominal pain [1, 5]: 25%
- treatment-emergent AE: alopecia [1, 5]: 36%
- treatment-emergent AE: constipation [1, 5]: 30%
- treatment-emergent AE: decreased appetite [1, 5]: 33%
- treatment-emergent AE: diarrhea [1, 5]: 25%
- treatment-emergent AE: fatigue [1, 5]: 59%
- treatment-emergent AE: nausea [1, 5]: 51%
- treatment-emergent AE: peripheral neuropathy [1, 5]: 44%
- treatment-emergent AE: neutropenia ([1]; all grades, % of 69 patients, 0.5 to 2.8 mg/kg q3wks IV): 25%
- patients who discontinued treatment due to AEs ([1]; of 69 patients): Seven
- febrile neutropenia ([1]; of 69 patients, both had a total dose exceeding 200 mg per cycle): 2 patients
- incidence of Grade 3 or higher neutropenia AEs ([1]; overall monotherapy study population): 39%
- maximum tolerated dose ([1]; q3wks IV, not exceeded at the highest dose): ≥ 2.8 mg/kg
- patients with SD>=24 wks [2]: one
- disease control rate (DCR=CR+PR+SD) ([2]; 10 SD): 59%
- confirmed PR rate ([3]; 44 efficacy evaluable TN patients): 21%
- objective response rate (ORR) ([3]; 44 efficacy evaluable TN patients (dose escalation plus expansion cohorts), 14 PR): 32%
- DCR ([3]; 44 efficacy evaluable TN patients, 14 PR, 14 SD): 64%
- clinical benefit rate (CBR=CR+PR+SD>=24 weeks) ([3]; 44 efficacy evaluable TN patients, 16 patients): 36%
- median PFS ([3]; TN patients, 95% CI: 6.1, 17.1): 11.3 weeks
- administrations resulting in development of neutropenia ([4]; co-administered with GCSF, 7 administrations): none
- administrations resulting in development of neutropenia ([4]; not co-administered with GCSF, 5 of 15 administrations): 33.3%
